# Molecular target: ZIKV sE-WT protein (Zika virus)
# Test: SPR (BIOCORE8000), sE amine-coupled on CM5 chip, antibody as mobile phase
substance,measurement,value
2A10G6 antibody,Kd,9.13 nM
